The DeepSol protein solubility set

Test: soluble on expression in E. coli; label from the status in PepcDB or PDB records

Sequence | soluble on expression in E. coli
MSLSQLREIQQQFMDYLLASAAQTPIPETIEKPFSDKVAEQGGVGRDIRMQIYANAYRIRLTEVLDTDHEILGLYLGDDLFARMANGYIAHQPSRFTSLRQFADALPGYLASDAFFSQYPIISDIARFERRLLNAFDAKDEQRASFAALQSLPADAWPYCQLRFHPSVQLFECASNAVETWQALKHQQVPPAPDYQGKHAWLLWRGENRLTEFISLAEYQLALIQGFIHGANIAEQCELMLNFFTPEEAMQQLLQALQAWFQLGLILSVQPNEGHHHHHH | not soluble
MSLSRFYHNLKFRSIPTTCATAQMCADRDEMQDSLICIPHFAAPEHYLFAGIDGHSGKYVSYKFSIRFPEIFYEMLSRDSGALNIIDALYQSFDTIQNEFANDPNVTDGAVATVIFMTPTKIYTAQCGDCRAVYITSSGVVQLAPEHKTSDRIEQMRIRSQGGFVSENLRVCGLLVARSVGDVKNKPIITHVPDITCFDRRDDEEYLVVATDGVWDEISNLKIHDILHSNRRVYRTSELSGLVKDIACVSCISGQHPDNIGIVLCRFEGHHHHHH | soluble
MSLSSERVLSNARVVSAERVFVGSVLLRDGLIAAVDEGRSHLAGAEDLGGDYLLPGLVELHTDNLEKHMTPRPGVDWPSASAVLAHDAQIVSAGITTVFDALSIGDVNPKGKRMQQLPKMLEAIGEAAASGDARADHRLHLRCEVSHPQTLEVFRELVEHPLVQLVSVMDHAPGQRQFARLEKYREYYQGKYHLSDAEMDAFIVEQVANSERYSDAARAAIVDVCQGRGLSVASHDDATLAHVRESAGYGMAIAEFPTTVEAARASHEHGLQVLMGAPNVVRGGSHSGNVAAAQLAGIGVLDILSSDYYPASLLHAALLLAGEHSEYDAIRYDLPRAVAMVSRTPALAAGLTDRGEIRVGLRADLLQARALGNNQPVVRQVWRGGQRVFEGHHHHHH | soluble
MSLSTVISSEASNYDHWAWLYNHTLGPRYSEQKIAPLARAVLSQLPNGASVLDLCCGTGHLAKLMADRGYAVTGLDGSQDMINHARGNAPDLEFVLGDARDFTFEQPFDGVVCTSASLNHIQNTEDLRKVFSSVRRCLKDEGIFAFDINHPGQMARYWRDVPAEGELTDDYAWLITPRYNSQSNEGSFTVEIHTRPKAARFSLAEAAYRLAARLLSNRRRLALIARFGIPGNNWERHSVTNPVWGHDLDTVTELLRASGFSVKMRSTDGGPVTDERAVYFLCTKIAGDRAGQEVTKEAVEEGHHHHHH | soluble
MSLSWIYDAHIHLSDPEYKSDMNMILNYMDLLKIKACCVSMDLETSNETMSLYEKSKNILPFIGIHPEMAQKESKPVYDLIEKNNEIISGVGEIGLDRTYIDTEDEWNVQKEVFSKQLSLAEKFNKPVSIHSRKTLSDIFEILPSYKIPGILLHWFDGNKSQLRTAMDNEYFVSYGPLLIYAHDKQTLLTKTDPNRLLVETDGPVKFSRCFEYKTTEIMFVSSVIFCASKLLHMPYEKLLEQIEGNSKRFLGIEGHHHHHH | soluble
MSLSWLGNDDRRKKDPEVFQTVSDGLKKLYKTKLLPLEEYYRFHEFHSPALEDADFDNKPMVLLVGQYSTGKTTFIRYLLEQDFPGMRIGPEPTTDSFIAVMQGDVEGIIPGNALVVDPKKPFRKLNAFGNAFLNRFVCAQLPNAVLESISVIDTPGILSGEKQRISRGYDFAAVLEWFAERVDRIILLFDAHKLDISDEFSEVIKALKNHEDKMRVVLNKADQIETQQLMRVYGALMWSLGKIVNTPEVIRVYIGSFWSHPLLIPDNRKLFEAEEQDLFRDIQSLPRNAALRKLNDLIKRARLAKVHAYIISSLKKEMPSVFGKDTKKKELVNNLAEIYGRIEREHQISPGDFPNLKKMQDQLQAQDFSKFQPLKSKLLEVVDDMLAHDIAQLMVLVRQEETQRPVQMVKGGAFEGTLQGPFGHGYGEGAGEGIDDAEWVVARDKPMYDEIFYTLSPVDGKITGANAKKEMVRSKLPNSVLGKIWKLADIDKDGMLDDEEFALANHLIKVKLEGHELPSELPAHLLPPYKRKVSEGHHHHHH | soluble
MSLSYLTEEKLTIVGAAGMIGSNMAQTAAMMRLTPNLCLYDPFAVGLEGVAEEIRHCGFEGLNLTFTSDIKEALTDAKYIVSSGGAPRKEGMTREDLLKGNAEIAAQLGKDIKSYCPDCKHVIIIFNPADITGLVTLIYSGLKPSQVTTLAGLDSTRLQSELAKHFGIKQSLVTNTRTYGGHGEQMAVFASTAKVNGTPLTDLIGTDKLTNEQWAELKQRVVKGGANIIKLRGRSSFQSPSYVSIEMIRAAMGGEAFRWPAGCYVNVPGFEHIMMAMETTITKDGVKHSDINQLGNEAERAALKESYSHLAKLRDEVIAMGIIPAIADWKTVNPNEGHHHHHH | soluble
MSLSYPWPDAGTALNAISTPMPVIDEDRLAANILRAQSYLDAHGKTFRPHIKTHKIPAIAKQQLQAGAIGINCQKVSEAEVFADAGFEDILITYNILGAAKLSRLKALNARIGRLSVVADSAVTIAGLADTFDAARPLAVLVECDTGGKRCGVQTPEAALALAEQIVSASGLIFRGILTYPAPGGAEMVEKFIRETMALLATKGIDCPVRSSGGSPDFYSAHLVASATEHRAGTYIYNDRSMLRAGHCSAGDLAMHVLATVVSKPTADRAVLDSGSKALTSDLLGFNDYGLLEGYEGAKIISLSEEHAVVDLSGCTGARPEIGDVVQVVPNHTCVVSNLFDRMVFHRNGVVTRVEQVAARGTVWEGHHHHHH | soluble
MSLTASVAAAPDPASLAPELAHIAPALKAEILAQALPYIRKFHGKTIVIKYGGNAMTEEKLKHGFARDVILLKLVGMNPVVVHGGGPQIDDALKKVGKTGTFIQGMRVTDEETMEVVEWVLGGEVQQDIVMLINQYGGQAVGLTGKDGGLIRAKKLQMPDREKPGQFIDIGFVGDIETINPAVVRALQDDAFIPVISPIGFSDDGQAYNINADVVAGKMAEILKAEKLVMMTNIPGVLDKQGNLLTDLSAREIDELFADGTISGGMLPKISSALDAAKSGVHSVHIIDGRIEHSLLLEILTEQAFGTMIRSHEGHHHHHH | soluble
MSLTAYKRVLLKLSGESLMGAQQYGIDPNRLADYASDIKEACAMGVQIGIVIGGGNIFRGVSGAAKGFDRVKGDQMGMLATVINSLALSSALEGVGVKTKVLTAVRMEPIGEFYNKWHAIELLEQGYVTIFSCGTGNPFFTTDTGSSLRGIEIEADAMLKGTRVDGIYTADPEKDPSATKFDRITYDEIYARGLKVMDLTATAMCMENNLPIVVFDMDTPGNLLKVLRGEKIGTYVSNTSAEGHHHHHH | soluble
MSLTAYMDHKNLANEVIDDARAREITDGVHRVLDRIAAAEEQAGREAGSVRLLAATKTRDIGEIMAAIDAGVRMIGENRPQEVTAKAEGLARRCAERGFSLGVAGAAPDAAAEHIPFHLIGQLQSNKIGKVLPVVDTIESVDSIDLAEKISRRAVARGITVGVLLEVNESGEESKSGCDPAHAIRIAQKIGTLDGIELQGLMTIGAHVHDETVIRRGFSHLRKTRDLILASGEPGTDRCRELSMGMTGDMELAIAEGSTIVRVGTAIFGERAFIEGHHHHHH | soluble
MSLTDAPDLILHRGLFTTLDRSNPIASAVAISGGRFSAVGHDREVLPLAGPSTKVIDLKGRRVLPGLIDNHLHIIRGGLNFNMELRWDGVRSLADAMNMLKRQVAITPPPQWVRVVGGFTEHQFAEKRLPTIEELNAVAPDTPVFLLHLYDRAILNGAALRAVGYTRDTPEPPGGEITRDANGNPTGLLLAKPNANILYATLAKGPKLPFDYQVNSTRHFMRELNRLGVTGAIDAGGGFQNYPDDYAVIQKLDEEGLLTIRLAYNLFTQKPKGEKDDFLNWTKTSKYKQGNDYFRHNGAGEMLVFSAADFEDFRVPRPDMPPEMEGELEEVVRILVQNKWPWRLHATYDETISRALDVFEKVNQDTPLDGLHWFFDHAETISDRSIDRIAALGGGIAVQHRMAYQGEYFVERYGFGAAEATPPVRRILDSGVKVSAGTDATRVASYNPWVSLSWLVTGRTVGGLRITPQRNCLDRETALRMWTENVTWFSNEEGNKGRVAVGQLADVVVPDRDYFSCSEAEIADTTSLLTMVGGKVVYGAGEFAGLDDSEGHHHHHH | not soluble
MSLTDHGFSFCAHAEQYAIIGSLSQLETSDNRDCDIRRPALNRCMAEKGTLRPEAAQIFQRLEALGLKQRELAQALGIEENKISKVRAGERQFKGAELLAAYEWLDQREAEAHMPRLSRVAAVGQQVIPATPVEGEVVQIQKLDLSLSMGPGTLIDGYVESELVSFDLGFVRLFTRAASDHLRLVTGIGDSMEPTLKWGDLILIDTTDRMLSKQDGIYWINLYGAAGIKRLRAIGPRTILVKSDNPGVDDQEVEAEDLRIEGRAIWATRGLEGHHHHHH | soluble
MSLTDNLQDLISTKLAAAIANPLFPAVDSQLRAGRHISLDQLDNHAFLMDFQGELDSFYRRYNVELIRAPEGFFYLRPKATTLIARSVLTELEMLVGKVLCYLYLSPERLAQQGIFSTQEVYDELLNLADENKLLKAVNQRSSGSDLDKQKLAEKVRAALNRLRRLGMIHGVGEQNSGKFTIAEAVFRFGAEVRAGDDPREAQLRPIRDGRPATPGFWAAGKTRSATGGEHRDEGGDEGGDEERAEGHHHHHH | soluble
MSLTDNQDPLQLVQEFRSIAGEAALVCAEETEDQRDRTQFVNFELEAKLWYLVELLVSFRTSDAPMDDIELHDYNSNAVFKKAQLQEDPELYVVWLIIAWIQENLTVSPRPAELPTTKWSNTLLAGGLKSSDLDCPLREEGVQIHPKDNQDDHCFYKYMYELILAGKYEEVRRECEYSDNLTLGMIMCGLEDYVDPRIDLELAGDYEGHQGIKKRALWRRAVYALSRNPNLDKYEAAIYAFLSGTIPQDIDEQQLDWERMLLVYLNQIWNIKIENYLLEKERINKEELIEQMPSQPLSLSAVLNIVASKHVEESEHPIRVLMGAVILNTISPAVKSFIDMLLDAVKGVDQENDLLSEPYILRILTHLVIFLDKACPGVIEEGDKSKLVTTYVSLLNLYEQYDLVPVYISCLDEQDIMEAYSFFLSNLVGDSSRERQLELCYFFQLPTANILKRTAQRIFNDTEPHYNLADTVTMNSEVTDIDLHLISAVDWLMKGRLHVDAVESIIALCRRFLANGKVNSLSTFFEQHNMDDLIKNYELDQLSAKEEYPEDRFVQEIGQYTKLITGFRQYKNWENSSHTVSSSKNTSALLQQFQAFASTLRGLVTEFLVELTEHTDMPSEDRDMLYNIRSLYTPYLLIELHNSYTSTAEKLGVPSFLQEAVNLSTMVANETDKIYLLFQNSGKLKEYLHLVAKAVALIGHEGHHHHHH | not soluble
MSLTDPVKIYQRKWIVGGWMKRSEIRKALEAWFDVERYEAIETLTLQQFYVEVERRILAYRMLLSRNTIPTFNRLMLDDYRNKILSGEIFFSGDTATIGHELARTYAVNPTTRSHAQFYAKTLSLTEATPELSGLSQSEFLSEYLKETSLNNLSRITVDIHLEEASTEEIIEHLKVLIPQWKRQLKMTSPAPREYRFGKSTFRKIIDYRLIPMMDLIFWGEDNGIKIPLSLISSLLHEDSDNDRDEGMLKATDYPLAMAFLTDASYLKSLEDYMMENNHLKDSPVEKHVEDDRNEGHHHHHH | not soluble
MSLTELTGNPRHDQLLMLIAERGYMNIDELANLLDVSTQTVRRDIRKLSEQGLITRHHGGAGRASSVVNTAFEQREVSQTEKKKAIAEAVADYIPDGSTIFITIGTTVEHVARALLNHNHLRIITNSLRVAHILYHNPRFEVMVPGGTLRSHNSGIIGPSAASFVADFRADYLVTSVGAIESDGALMEFDVNEANVVKTMMAHARNILLVADHTKYHASAAVEIGNVAQVTALFTDELPPAALKSRLQDSQIEIILPQEDALEHHHHHH | soluble
